Results taken from the supplement of paper PMC10065799, “High-throughput profiling of sequence recognition by tyrosine kinases and SH2 domains using bacterial peptide display” (eLife, 2023).

The sequences below were run on c-Src (assay: phosphorylation enrichment, bacterial display (enrichment ratio); higher = better substrate or ligand; peptides without Tyr show the background).
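For SH2 binding enrichment of the phosphorylated peptide, bacterial display in this document: peptide library displayed on the E. coli surface as eCPX fusions, selected cells deep-sequenced, score is each peptide's frequency after selection divided by its frequency in the input.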
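For phosphorylation enrichment, bacterial display in this document: 11-residue human phosphosite peptides and single-mutation variants displayed on the E. coli surface, counted by deep sequencing, each peptide's frequency after selection divided by its frequency in the unselected input library; frequency after pTyr selection over input frequency; kinase dosed for 20-30% of maximal phosphorylation in three min.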

Compared with VRFMAYTDETF [F8_Y450], SVVVLYEPPEV [TP53_Y220_P219L] is higher in phosphorylation enrichment: 0.433 for the first, 0.701 for the second.

First: KKLHEYNTQFQ [PIK3R1_Y452]
Second: ALRHFYKLNII [ETV6_Y402_YF]
The phosphorylation enrichment of the first is lower: 0.42 for the first, 0.439 for the second.

Going from NREGVYRVFAP [TGFBI_Y537_T538R] to FQCLRYIKQLG [SAMHD1_Y146_R143C], the phosphorylation enrichment falls from 4.67 to 0.44.

First: NACGLYHKMNG [GATA5_Y216]
Second: EFFENYIEELK [PARP4_Y218_F215Y_YF]
The phosphorylation enrichment of the first is higher: 0.523 for the first, 0.501 for the second.

Going from VSLLPYFPAIM [IPO4_Y518_A513V] to VMAVAYRLAEQ [HK1_Y461_T457M], the phosphorylation enrichment rises from 0.443 to 0.463.

First: VICRRYLVMQR [IL3RA_Y328]
Second: SIKDKHVTALF [KCNH2_Y611_Y611H_YF]
The phosphorylation enrichment of the first is lower: 0.342 for the first, 0.52 for the second.

Going from LDTSQYFRLFN [CPT2_Y217_M214T] to AGTILSHAHLD [ASS1_Y291_Y291S], the phosphorylation enrichment falls from 0.535 to 0.384.

First: TNRSFYFKPSL [NUP153_Y382_V381F]
Second: SSFDTYHLSRE [KIR3DL2_Y253_I252T_YF]
The phosphorylation enrichment of the first is lower: 0.491 for the first, 3.31 for the second.

First: APSEFYDGDHD [HDAC3_Y414_N411S]
Second: TYAVSYLPDMS [FLNC_Y1602_T1599A]
The phosphorylation enrichment of the first is lower: 0.565 for the first, 0.811 for the second.

Going from TDGIAYEFRVI to FLQEIYNSNNQ [FGG_Y140_YF], the phosphorylation enrichment rises from 0.527 to 1.64.

Compared with GNLLIYTEFGK [HGD_Y166], QTENKYDSVSG [EIF2AK3_Y565] is lower in phosphorylation enrichment: 5.93 for the first, 0.467 for the second.

First: VVPGSYDRLRV [IFT172_Y260_L257P]
Second: RAILDYIASKF [GSTA3_Y74_N73D_YF]
The phosphorylation enrichment of the first is higher: 0.399 for the first, 0.358 for the second.

First: VRTGIYHGREP [PIK3CA_Y361_G364R]
Second: WDSSGYWTPEE [PAPPA2_Y908_C903W]
The phosphorylation enrichment of the first is higher: 0.503 for the first, 0.453 for the second.

Going from EWLRRYLKNGK [HLA-C_Y195_E197K] to LANNEYFFRVC, the phosphorylation enrichment rises from 0.504 to 0.55.

Going from FDSPFYRDSLP [TSC1_Y508] to HNLYSYPTKYE [MYO3A_Y1396_H1400Y], the phosphorylation enrichment rises from 0.451 to 2.62.

Going from GTAPSYGNPSS [CD19_Y378] to SVTCTGSPALN [TP53_Y126_Y126G], the phosphorylation enrichment falls from 0.496 to 0.387.

For AEPHTYEEPGR [EPHA8_Y616], the phosphorylation enrichment was 0.439.

Each sequence was assayed against Grb2 SH2 (UniProt P62993) (assay: SH2 binding enrichment of the phosphorylated peptide, bacterial display (enrichment ratio); higher = better substrate or ligand; peptides without Tyr show the background).
Sequence of Grb2 SH2 (P62993 whole entry, looked up): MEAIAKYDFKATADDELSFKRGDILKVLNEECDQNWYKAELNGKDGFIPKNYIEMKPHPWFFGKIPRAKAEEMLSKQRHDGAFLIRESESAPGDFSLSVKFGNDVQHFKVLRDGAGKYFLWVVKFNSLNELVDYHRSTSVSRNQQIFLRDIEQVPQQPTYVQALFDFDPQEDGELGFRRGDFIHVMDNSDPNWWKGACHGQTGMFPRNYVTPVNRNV

Compared with VRFMAYTDETF [F8_Y450], SVVVLYEPPEV [TP53_Y220_P219L] is higher in SH2 binding enrichment: 0.734 for the first, 0.962 for the second.

Compared with KKLHEYNTQFQ [PIK3R1_Y452], ALRHFYKLNII [ETV6_Y402_YF] is higher in SH2 binding enrichment: 1 for the first, 1.25 for the second.

Going from NREGVYRVFAP [TGFBI_Y537_T538R] to FQCLRYIKQLG [SAMHD1_Y146_R143C], the SH2 binding enrichment falls from 0.755 to 0.662.

Going from NACGLYHKMNG [GATA5_Y216] to EFFENYIEELK [PARP4_Y218_F215Y_YF], the SH2 binding enrichment rises from 0.81 to 0.941.

First: VSLLPYFPAIM [IPO4_Y518_A513V]
Second: VMAVAYRLAEQ [HK1_Y461_T457M]
The SH2 binding enrichment of the first is lower: 0.902 for the first, 1.26 for the second.

First: VICRRYLVMQR [IL3RA_Y328]
Second: SIKDKHVTALF [KCNH2_Y611_Y611H_YF]
The SH2 binding enrichment of the first is higher: 0.816 for the first, 0.659 for the second.

Compared with LDTSQYFRLFN [CPT2_Y217_M214T], AGTILSHAHLD [ASS1_Y291_Y291S] is lower in SH2 binding enrichment: 0.96 for the first, 0.696 for the second.

First: TNRSFYFKPSL [NUP153_Y382_V381F]
Second: SSFDTYHLSRE [KIR3DL2_Y253_I252T_YF]
The SH2 binding enrichment of the first is higher: 1.04 for the first, 0.764 for the second.

Compared with APSEFYDGDHD [HDAC3_Y414_N411S], TYAVSYLPDMS [FLNC_Y1602_T1599A] is lower in SH2 binding enrichment: 1.1 for the first, 0.809 for the second.

Going from TDGIAYEFRVI to FLQEIYNSNNQ [FGG_Y140_YF], the SH2 binding enrichment rises from 0.753 to 0.89.

Compared with GNLLIYTEFGK [HGD_Y166], QTENKYDSVSG [EIF2AK3_Y565] is higher in SH2 binding enrichment: 0.687 for the first, 0.839 for the second.

First: VVPGSYDRLRV [IFT172_Y260_L257P]
Second: RAILDYIASKF [GSTA3_Y74_N73D_YF]
The SH2 binding enrichment of the first is lower: 0.772 for the first, 1.08 for the second.

First: VRTGIYHGREP [PIK3CA_Y361_G364R]
Second: WDSSGYWTPEE [PAPPA2_Y908_C903W]
The SH2 binding enrichment of the first is lower: 1.06 for the first, 1.2 for the second.

Compared with EWLRRYLKNGK [HLA-C_Y195_E197K], LANNEYFFRVC is higher in SH2 binding enrichment: 0.656 for the first, 1.05 for the second.

Compared with FDSPFYRDSLP [TSC1_Y508], HNLYSYPTKYE [MYO3A_Y1396_H1400Y] is lower in SH2 binding enrichment: 0.796 for the first, 0.757 for the second.

First: GTAPSYGNPSS [CD19_Y378]
Second: SVTCTGSPALN [TP53_Y126_Y126G]
The SH2 binding enrichment of the first is higher: 0.907 for the first, 0.796 for the second.

AEPHTYEEPGR [EPHA8_Y616] was tested, and the SH2 binding enrichment was 0.882.

The sequences below were run against SHP2-C SH2 in the same assay as above.

First: VRFMAYTDETF [F8_Y450]
Second: SVVVLYEPPEV [TP53_Y220_P219L]
The SH2 binding enrichment of the first is higher: 0.719 for the first, 0.612 for the second.

Compared with KKLHEYNTQFQ [PIK3R1_Y452], ALRHFYKLNII [ETV6_Y402_YF] is higher in SH2 binding enrichment: 0.86 for the first, 2.11 for the second.

Going from NREGVYRVFAP [TGFBI_Y537_T538R] to FQCLRYIKQLG [SAMHD1_Y146_R143C], the SH2 binding enrichment falls from 0.774 to 0.658.

Compared with NACGLYHKMNG [GATA5_Y216], EFFENYIEELK [PARP4_Y218_F215Y_YF] is lower in SH2 binding enrichment: 0.945 for the first, 0.663 for the second.

Compared with VSLLPYFPAIM [IPO4_Y518_A513V], VMAVAYRLAEQ [HK1_Y461_T457M] is higher in SH2 binding enrichment: 0.848 for the first, 1.03 for the second.

First: VICRRYLVMQR [IL3RA_Y328]
Second: SIKDKHVTALF [KCNH2_Y611_Y611H_YF]
The SH2 binding enrichment of the first is lower: 0.416 for the first, 0.456 for the second.

Compared with LDTSQYFRLFN [CPT2_Y217_M214T], AGTILSHAHLD [ASS1_Y291_Y291S] is lower in SH2 binding enrichment: 1.98 for the first, 0.55 for the second.

Going from TNRSFYFKPSL [NUP153_Y382_V381F] to SSFDTYHLSRE [KIR3DL2_Y253_I252T_YF], the SH2 binding enrichment rises from 0.774 to 0.824.

Going from APSEFYDGDHD [HDAC3_Y414_N411S] to TYAVSYLPDMS [FLNC_Y1602_T1599A], the SH2 binding enrichment rises from 0.733 to 0.95.

First: TDGIAYEFRVI
Second: FLQEIYNSNNQ [FGG_Y140_YF]
The SH2 binding enrichment of the first is lower: 0.642 for the first, 1.1 for the second.

First: GNLLIYTEFGK [HGD_Y166]
Second: QTENKYDSVSG [EIF2AK3_Y565]
The SH2 binding enrichment of the first is lower: 0.668 for the first, 0.724 for the second.

Going from VVPGSYDRLRV [IFT172_Y260_L257P] to RAILDYIASKF [GSTA3_Y74_N73D_YF], the SH2 binding enrichment rises from 0.912 to 1.06.

First: VRTGIYHGREP [PIK3CA_Y361_G364R]
Second: WDSSGYWTPEE [PAPPA2_Y908_C903W]
The SH2 binding enrichment of the first is lower: 0.766 for the first, 2.08 for the second.

Going from EWLRRYLKNGK [HLA-C_Y195_E197K] to LANNEYFFRVC, the SH2 binding enrichment rises from 0.409 to 0.884.

Compared with FDSPFYRDSLP [TSC1_Y508], HNLYSYPTKYE [MYO3A_Y1396_H1400Y] is higher in SH2 binding enrichment: 0.652 for the first, 0.657 for the second.

First: GTAPSYGNPSS [CD19_Y378]
Second: SVTCTGSPALN [TP53_Y126_Y126G]
The SH2 binding enrichment of the first is lower: 0.556 for the first, 0.625 for the second.

AEPHTYEEPGR [EPHA8_Y616] gave an SH2 binding enrichment of 0.862.

These sequences were tested against c-Src SH2 in the same assay as above.

Compared with VRFMAYTDETF [F8_Y450], SVVVLYEPPEV [TP53_Y220_P219L] is higher in SH2 binding enrichment: 0.498 for the first, 0.611 for the second.

First: KKLHEYNTQFQ [PIK3R1_Y452]
Second: ALRHFYKLNII [ETV6_Y402_YF]
The SH2 binding enrichment of the first is lower: 0.592 for the first, 1.27 for the second.

First: NREGVYRVFAP [TGFBI_Y537_T538R]
Second: FQCLRYIKQLG [SAMHD1_Y146_R143C]
The SH2 binding enrichment of the first is lower: 0.436 for the first, 0.528 for the second.

First: NACGLYHKMNG [GATA5_Y216]
Second: EFFENYIEELK [PARP4_Y218_F215Y_YF]
The SH2 binding enrichment of the first is higher: 1.95 for the first, 0.502 for the second.

Going from VSLLPYFPAIM [IPO4_Y518_A513V] to VMAVAYRLAEQ [HK1_Y461_T457M], the SH2 binding enrichment rises from 0.602 to 0.685.

First: VICRRYLVMQR [IL3RA_Y328]
Second: SIKDKHVTALF [KCNH2_Y611_Y611H_YF]
The SH2 binding enrichment of the first is lower: 0.354 for the first, 0.443 for the second.

Going from LDTSQYFRLFN [CPT2_Y217_M214T] to AGTILSHAHLD [ASS1_Y291_Y291S], the SH2 binding enrichment falls from 0.472 to 0.374.

First: TNRSFYFKPSL [NUP153_Y382_V381F]
Second: SSFDTYHLSRE [KIR3DL2_Y253_I252T_YF]
The SH2 binding enrichment of the first is higher: 0.806 for the first, 0.701 for the second.

Going from APSEFYDGDHD [HDAC3_Y414_N411S] to TYAVSYLPDMS [FLNC_Y1602_T1599A], the SH2 binding enrichment rises from 0.544 to 0.674.

Going from TDGIAYEFRVI to FLQEIYNSNNQ [FGG_Y140_YF], the SH2 binding enrichment rises from 0.47 to 0.53.

Compared with GNLLIYTEFGK [HGD_Y166], QTENKYDSVSG [EIF2AK3_Y565] is higher in SH2 binding enrichment: 0.471 for the first, 7.1 for the second.

Compared with VVPGSYDRLRV [IFT172_Y260_L257P], RAILDYIASKF [GSTA3_Y74_N73D_YF] is lower in SH2 binding enrichment: 0.818 for the first, 0.689 for the second.

First: VRTGIYHGREP [PIK3CA_Y361_G364R]
Second: WDSSGYWTPEE [PAPPA2_Y908_C903W]
The SH2 binding enrichment of the first is lower: 0.568 for the first, 36.9 for the second.

First: EWLRRYLKNGK [HLA-C_Y195_E197K]
Second: LANNEYFFRVC
The SH2 binding enrichment of the first is lower: 0.436 for the first, 0.634 for the second.

First: FDSPFYRDSLP [TSC1_Y508]
Second: HNLYSYPTKYE [MYO3A_Y1396_H1400Y]
The SH2 binding enrichment of the first is lower: 0.518 for the first, 1.31 for the second.

Going from GTAPSYGNPSS [CD19_Y378] to SVTCTGSPALN [TP53_Y126_Y126G], the SH2 binding enrichment falls from 0.45 to 0.388.

Work on AEPHTYEEPGR [EPHA8_Y616] yielded an SH2 binding enrichment of 6.34.
